The values below come from US6312690, “Monoclonal recombinant anti-rhesus D (D7C2) antibody” (Institut Pasteur, dated 2001).

Positions count from the first letter of the chain named.

The target in experiment [1] is T1, Rhesus D antigen (human, UniProt Q02161).
T1 sequence: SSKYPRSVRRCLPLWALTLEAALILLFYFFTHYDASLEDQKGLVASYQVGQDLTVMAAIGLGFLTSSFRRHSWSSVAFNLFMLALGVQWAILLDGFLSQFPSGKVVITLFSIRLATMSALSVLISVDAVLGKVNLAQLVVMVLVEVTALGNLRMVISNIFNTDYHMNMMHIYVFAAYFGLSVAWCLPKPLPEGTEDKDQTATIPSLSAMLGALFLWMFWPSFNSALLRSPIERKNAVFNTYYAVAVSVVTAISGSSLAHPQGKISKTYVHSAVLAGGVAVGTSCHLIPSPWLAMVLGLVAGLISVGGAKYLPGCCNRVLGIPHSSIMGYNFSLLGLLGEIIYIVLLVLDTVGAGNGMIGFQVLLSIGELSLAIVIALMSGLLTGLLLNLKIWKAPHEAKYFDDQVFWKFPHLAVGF

Experiment [2] addresses T1, Rhesus D antigen. Kind of experiment: agglutination titre on a pool of papain-treated R1/r red blood cells, one hour at 37° C.
In experiment [3] the target is T1, Rhesus D antigen. As to the kind of experiment: agglutination of red blood cells.

In the case of “"irrelevant" recombinant antibody (IgG1, κ) directed against a protein other than the Rhesus antigen”, the % specific lysis (ADCC test, 51Cr release) (% specific lysis) in experiment [1] was found to be 0.

B1: r-IgG-D7C2 recombinant monoclonal antibody (antibody, V domains shown)
VH: QVQLEQWGAGLLKPSETLSLTCTVYGGSFSGYYWSWIRQPPGKGLEWIGEINHSGSTNYNPSLKSRVTISVDTSKNQFSLKLNSVTAADTAVYYCARAPEYKWKYHGDWFDPWGQGTTVTVSS
VL: DIELTQDPAVSVALGQTVRITCQGDSLRTYYASWYQQKPGQAPVLVIYGKNNRPSGIPDRFSGSSSGNTASLTITGAQAEDEADYFCNSGGKVFGGGTKLTVLG
On to B1, for which the titre (titre (1/x dilution)) in experiment [2] came out at 512. This molecule returned a % specific lysis (ADCC test, 51Cr release) (% specific lysis) in experiment [1] of 93.3.

B2: IgM-D7C2 human parental monoclonal antibody (antibody, V domains shown)
VH: B1 VH with E5Q
VL: B1 VL with D1Q, I2S, E3V
For the molecule B2, the binding result in experiment [3] was “binds”.
